Experiments:
[1] = molecular target: MtrAB (native, the MtrAB component of the MtrCAB complex) (Shewanella oneidensis MR-1); experiment: small-angle neutron scattering (SANS); co-purified native MtrCAB at 3.5 and 9.7 mg/ml in 20 mM HEPES pH 7.8, 100 mM NaCl, 2.8 mM Fos-choline-12, 13% D2O (detergent contrast-matched); molecular mass from I(0), ab initio envelope
[2] = molecular target: MtrCAB porin–cytochrome complex (Shewanella oneidensis MR-1)

Row | stoichiometry N [1] | rate of electron transfer from STC internalised in MtrCAB proteoliposomes to external Fe(III) citrate (absorbance at 550 nm) (nM electrons s^-1) [2] | rate of electron transfer from external sodium dithionite to STC internalised in MtrCAB proteoliposomes (absorbance at 550 nm) (nM electrons s^-1) [2] | Substance
1 | 1 | – | – | MtrC (native, from the MtrCAB complex) (natural protein)
2 | – | 61 | 140 | small tetraheme cytochrome (STC) (natural protein)
